Several values for one entry are separate records, joined by “and”; a condition that tells them apart may be missing. Equal values may be shown once.
Experiments:
Assay in all cases: SPR; IgG covalently coupled (sNHS/EDC, printed at four densities, sodium acetate pH 4.5-5.0) on a carboxymethyldextran prism (IBIS MX96 array); FcγR injected as analyte, eight part threefold dilution series generally starting between 18 and 41 µM; running buffer PBS + 0.01% BSA + Tween 20; global kinetic analysis, 1:1 model; two experiments with different preparations of FcγR
[1] = molecular target: recombinant monoclonal rhesus macaque IgG1 (MM IgG1), anti-CD8α (rhesus macaque (Macaca mulatta))
[2] = molecular target: recombinant monoclonal rhesus macaque IgG2 (MM IgG2), anti-CD8α (rhesus macaque (Macaca mulatta))
[3] = molecular target: recombinant monoclonal rhesus macaque IgG3 (MM IgG3), anti-CD8α (rhesus macaque (Macaca mulatta))
[4] = molecular target: recombinant monoclonal rhesus macaque IgG4 (MM IgG4), anti-CD8α (rhesus macaque (Macaca mulatta))

Kd [1]	Kd [2]	Kd [3]	Kd [4]	Substance
4 µM and 8 µM	48 µM and 15 µM	78 µM and 33 µM	48 µM and 17 µM	human FcγRIIIa F158 (from UniProt P08637 17-254) (receptor)
4 µM and 5 µM	21 µM and 14 µM	84 µM and 27 µM	29 µM	human FcγRIIIa V158 (receptor)
18 µM and 14 µM	700 µM and 250 µM	700 µM and 210 µM	500 µM and 120 µM	human FcγRIIIb NA1 (from UniProt O75015 17-200) (receptor)
13 µM and 15 µM		510 µM and 270 µM	730 µM and 270 µM	human FcγRIIIb NA2 (from UniProt O75015 17-200) (receptor)
15 µM and 9 µM	530 µM and 80 µM	740 µM and 350 µM	465 µM and 340 µM	human FcγRIIIb SH (from UniProt O75015 17-200) (receptor)
7 µM and 9 µM	11 µM	27 µM and 16 µM	20 µM and 23 µM	human FcγRIIa H131 (from UniProt P12318 34-317) (receptor)
21 µM and 9 µM	41 µM and 32 µM	25 µM and 11 µM	20 µM and 11 µM	human FcγRIIa R131 (receptor)
53 µM and 36 µM	90 µM and 125 µM	46 µM and 38 µM	33 µM and 32 µM	human FcγRIIb/c (from UniProt P31994 43-310) (receptor)
